In paper PMC4351179 one finds stoichiometry N data, which are given here for one substance.

The experiment has as its target human DNA polymerase theta (Polθ), polymerase domain, wild type (human). The experiment is described as follows: SEC. Background: Size exclusion chromatography separates by hydrodynamic size, large species first.

For orientation: stoichiometry N means a count of units in the complex or per binding partner. With “human DNA polymerase theta (Polθ), polymerase domain, wild type (domain or fragment)”, the stoichiometry N came out at 2.
